Entries after “also recorded” stand apart in the source; their conditions may differ. Where no end group is shown, it is not given here.
Legend:
[1] = test system: human umbilical vein endothelial cells; assay: Endothelial cell binding assay: binding of [125I]-tPA to endothelial cells; details: for inhibition of binding of tPA to endothelial cells (FIG. 3): 15 μg/ml peptide, about 20 ng/ml [125I]-tPA, 4° C., 90 minutes; for dose response of inhibition of binding of tPA to endothelial cells (FIG. 4): several peptide concentrations
Description: Peptides from FIG. 1 were examined for their ability to inhibit the binding of [^125 I]-tPA to human umbilical vein endothelial cells. Assays were performed as described under Materials and Methods, below, using a final peptide concentration of 15 μg/ml. All samples were assayed in duplicate. Bar height represents the result obtained for one duplicate point and the corresponding error bar represents the result obtained for the other. Results are shown in percent inhibition of binding.
Assays examining the binding of [^125 I]-tPA to endothelial cells were performed by a conventional method essentially as described by Hajjar et al., J. Clin. Invest. 80, 1712-1719 (1987), and Beebe, Thromb. Res. 46, 241-254 (1987). Briefly, cells were grown to confluence in 24-well dishes using MCDB107 growth medium supplemented with 180 μg/ml heparin, 30 μg/ml ECGS, 100 μg/ml gentamicin and 10% fetal bovine serum. Immediately prior to assay, plates were chilled to 4° C. and all wells were aspirated. Cells were washed 3 times with binding buffer (PBS, pH 7.2, 5.0 mg/ml BSA, 10 mM glucose, 0.01% Tween 80). Five hundred μl of buffer containing approximately 20 ng/ml of [^125 I]-tPA and a test sample of peptide was then added. Incubations proceeded at 4° C. for 90 minutes. At the end of the incubation time, cells were washed rapidly 4 times with 500 μl aliquots of binding buffer. Cells were separated from the plates using 3% sodium dodecylsulfate (SDS) and the amount of radioactivity present was determined. Nonspecific binding was determined by carrying out incubations in the presence of an excess (2.0 μg/ml) of unlabeled tPA.
The peptides shown in Table 1 were examined for their effect on the binding of tPA to cultured human umbilical vein endothelial cells. […] All points were run in duplicate and nonspecific binding was subtracted in each case.

[2] = target: T1, PAI-1 (Homo sapiens, UniProt P05121); assay: PAI-1 inhibition studies: protection of tPA from inactivation by PAI-1, residual tPA enzymatic activity by indirect amidolytic assay; format: biochemical; details: 1.5 μg/ml PAI-1, 50 ng/ml tPA; for maintenance of tPA activity in the presence of PAI-1 (FIG. 1): 100 μg/ml peptide, one hour at 37° C.; for effect of peptide concentration on the maintenance of tPA activity in the presence of PAI-1 (FIG. 2): several peptide concentrations (30-120 μg/ml)
T1 construct: purchased American Diagnostica, Inc
T1 sequence (P05121 24-402): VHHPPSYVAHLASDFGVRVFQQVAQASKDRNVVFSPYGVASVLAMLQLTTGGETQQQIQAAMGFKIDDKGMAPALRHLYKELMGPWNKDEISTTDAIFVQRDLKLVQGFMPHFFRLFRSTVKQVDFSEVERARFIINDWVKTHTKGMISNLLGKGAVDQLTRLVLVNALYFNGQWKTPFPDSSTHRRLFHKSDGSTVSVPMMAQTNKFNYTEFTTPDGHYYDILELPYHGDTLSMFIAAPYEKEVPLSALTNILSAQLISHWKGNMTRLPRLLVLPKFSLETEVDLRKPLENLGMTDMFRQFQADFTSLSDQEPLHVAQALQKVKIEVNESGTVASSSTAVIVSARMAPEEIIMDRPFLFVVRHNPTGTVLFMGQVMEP
Description: In each case, peptide and PAI-1 were first mixed, followed by the addition of tPA. Final concentrations were: 100 μg/ml peptide, 1.5 μg/ml PAI-1 and 50 ng/ml tPA in phospate buffered saline containing 0.01% sodium azide and 0.01% Tween 80%. After incubation for one hour at 37° C., samples were examined for remaining tPA enzymatic activity. The error bars represent the range of duplicate measurements of the tPA enzymatic activity in μAU/min/min.
Results are expressed as the percentage of tPA enzymatic activity remaining after incubation with tPA, PAI-1 and peptide relative to that seen with tPA alone.
An indirect amidolytic assay for tPA activity was performed by a conventional method as described by Ranby and Wallen, Prog. Fibrinolytics 5, 233-235 (1981) and Ranby, Biochim. Biophys. Acta 740, 461-469 (1982) but with the following modifications. The assay mixture contained 50 μg/ml human glu-plasminogen, 1 mM plasmin substrate S-2251, 130 μg/ml fibrinogen fragment stimulator, and 0 to 20 ng/ml tPA sample in phosphate-buffered saline containing 0.01% sodium azide and 0.01% Tween 80 (PBSAT) in a final volume of 100 μl. The assay was performed in a 96-well microtitration plate at room temperature. Reaction mixtures were overlaid with 50 μl mineral oil to prevent evaporation. Periodic readings were taken at 405 nm and referenced at 650 nm using a Molecular Devices Vmax plate reader. The first derivative of absorbance with respect to time was calculated and the slope of a plot of dA/dt vs time was proportional to tPA activity. Results were expressed in absorbance units (μ AU/min^2) or as a percentage of control.
The effect of peptides on the inactivation of tPA by PAI-1 was measured by incubating 1.5 μg/ml PAI-1, 30-120 μg/ml peptide and 50 ng/ml tPA in PBSAT. PAI-1 and peptide were first mixed, followed by the addition of tPA. After one hour at 37° C., residual tPA enzymatic activity was measured either immediately or after the samples had been frozen and stored.
tPA was incubated with increasing concentrations of PAI-1 for one hour at 37° C. and the incubate was then assayed for residual tPA enzymatic activity.

| Substance | inhibition of binding of tPA to endothelial cells (FIG. 3) [1] | maintenance of tPA activity in the presence of PAI-1 (FIG. 1) [2] | effect of peptide concentration on the maintenance of tPA activity in the presence of PAI-1 (FIG. 2) [2] | dose response of inhibition of binding of tPA to endothelial cells (FIG. 4) [1] |
| --- | --- | --- | --- | --- |
| LGKHNYCRNPDGDAKPWCHVLKNRR-amide (LGKHNYCRNPDGDAKPWCHVLKNRR-NH2; cysteine pairing not given here) [Peptide 166, 25 amino acid synthetic peptide amide fragment of native human tPA] | effective at inhibiting the binding of tPA to cells | no effect | no effect | – |
| VPVKSCSEPRCFNGGTCQQALYFSD-amide (VPVKSCSEPRCFNGGTCQQALYFSD-NH2; cysteine pairing not given here) [Peptide 148, 25 amino acid synthetic peptide amide fragment of native human tPA] | inhibited the binding of tPA to endothelial cells | especially effective at maintaining tPA activity | rose dramatically and plateaued | concentration dependent manner |
| NPDRDSKPWCYVFKAGKYSSEFCST-amide (NPDRDSKPWCYVFKAGKYSSEFCST-NH2; cysteine pairing not given here) [Peptide 158, 25 amino acid synthetic peptide amide fragment of native human tPA] | inhibited the binding of tPA to endothelial cells; also recorded: more effective at inhibiting endothelial cell binding relative to the other active peptides | active but with a lesser effect | steady, progressive increase in activity | concentration dependent manner |

— US5039791A, “Peptide fragments of tissue plasminogen activator” (Monsanto Company, priority 1989, dated 1991)
